Results: patent US20220153839A1 (NBE THERAPEUTICS, published 2022)

What was measured:
[1] = biological target: human ROR1, full length, on cells (human, UniProt Q01973 30-937); assay: cell-based or functional assay
[2] = biological target: T1, twin strep-tagged human ROR2 extracellular domain (human, UniProt Q01974 34-403); assay: ELISA on coated twin-strep tagged human ROR2; anti-human Fcγ F(ab')2-HRP; absorbance 490 nm
T1 construct: extracellular domain; Expressed in HEK293T; also called ROR2-ECD-TwinStrep
T1 sequence (Q01974 34-403): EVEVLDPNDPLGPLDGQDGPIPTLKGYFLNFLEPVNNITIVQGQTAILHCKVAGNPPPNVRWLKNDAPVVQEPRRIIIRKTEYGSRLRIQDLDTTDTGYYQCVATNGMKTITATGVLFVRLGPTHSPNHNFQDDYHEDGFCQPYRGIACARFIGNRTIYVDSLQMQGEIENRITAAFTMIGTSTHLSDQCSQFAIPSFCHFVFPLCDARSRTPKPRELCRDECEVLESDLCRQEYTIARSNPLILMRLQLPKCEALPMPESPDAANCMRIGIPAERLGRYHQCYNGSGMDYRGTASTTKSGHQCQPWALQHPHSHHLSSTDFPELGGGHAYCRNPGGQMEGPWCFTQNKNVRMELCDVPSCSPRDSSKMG
Experimental: Each well of a 96-well plate was coated with 100 μL of 2 μg/mL strep-tagged human ROR1 (from Example 5) in 0.1 M bicarbonate coating buffer (pH 9.6), and incubated for 12 h at 4° C. A second 96-well plate was likewise prepared with twin-strep tagged human ROR2 (from Example 5).
HRP-conjugated F(ab′)₂ anti-human FC-gamma (Jackson Immunoresearch, 109-036-008) was then added at a 1:20′000 dilution, 100 μl per well, and incubated for 1 h at 37° C. prior to detection using an Spark 10M plate reader (Tecan).

hROR2 = biological target: T2, hROR2 (human, UniProt Q01974); assay: flow cytometry on 63-12 / hROR2 cells; anti-His Alexa Fluor 488
T2 construct: full length, on the cell surface; also called 63-12 / hROR2; ROR2 on T47D cells
T2 sequence (Q01974 34-943 limits assumed): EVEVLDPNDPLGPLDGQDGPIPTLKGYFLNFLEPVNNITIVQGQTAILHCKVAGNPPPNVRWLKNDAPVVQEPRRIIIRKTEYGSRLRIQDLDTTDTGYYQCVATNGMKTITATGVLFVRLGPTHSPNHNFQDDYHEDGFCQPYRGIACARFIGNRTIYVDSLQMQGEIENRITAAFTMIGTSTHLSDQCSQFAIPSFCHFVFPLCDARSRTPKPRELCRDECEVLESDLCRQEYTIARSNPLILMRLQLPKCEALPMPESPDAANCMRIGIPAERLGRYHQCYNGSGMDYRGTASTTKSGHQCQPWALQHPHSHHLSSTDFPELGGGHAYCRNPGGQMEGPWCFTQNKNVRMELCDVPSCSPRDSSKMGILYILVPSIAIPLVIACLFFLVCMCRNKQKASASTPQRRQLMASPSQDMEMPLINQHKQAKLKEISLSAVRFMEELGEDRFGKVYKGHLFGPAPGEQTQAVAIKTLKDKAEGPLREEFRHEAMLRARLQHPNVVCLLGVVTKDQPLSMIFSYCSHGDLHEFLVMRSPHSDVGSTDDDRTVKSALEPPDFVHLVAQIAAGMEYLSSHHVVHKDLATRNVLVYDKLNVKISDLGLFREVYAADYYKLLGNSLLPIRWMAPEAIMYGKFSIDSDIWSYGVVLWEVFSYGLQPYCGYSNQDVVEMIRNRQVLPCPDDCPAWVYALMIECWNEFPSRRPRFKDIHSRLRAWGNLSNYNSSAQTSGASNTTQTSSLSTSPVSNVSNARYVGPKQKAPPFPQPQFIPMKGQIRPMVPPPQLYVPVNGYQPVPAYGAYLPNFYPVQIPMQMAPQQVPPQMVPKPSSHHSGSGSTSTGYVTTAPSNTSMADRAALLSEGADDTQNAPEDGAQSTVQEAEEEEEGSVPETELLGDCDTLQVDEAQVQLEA
Experimental: Flow cytometry: Cells were stained using standard flow cytometry methodology. Briefly, for purified anti-ROR1 Fab (FIG. 3), 0.1-1×10⁶ cells were stained with 1000 ng/100 μL of Fab on ice for 1 h. After washing twice with ice-cold flow cytometry buffer (PBS containing 1% (v/v) BSA, 0.1% sodium azide and 1 mM EDTA), the cells were incubated with a 1:1000 dilution of a mouse anti-His tag mAb conjugated to Alexa Fluor 488 (Qiagen) in 100 μL flow cytometry buffer on ice for 30 min. For purified anti-ROR1 IgG1 (FIG. 8), 0.1-1×10⁶ cells were blocked by 4% goat serum for 15 min at room temperature and then incubated with 100 ng/100 μL of IgG on ice for 1 h. After washing twice with ice-cold flow cytometry buffer, cells were stained with a 1:500 dilution of goat anti-human IgG, Fcγ pAbs conjugated to APC (Jackson ImmunoResearch) in 100 μL flow cytometry buffer on ice for 30 min. For commercial goat anti human ROR1 polyclonal antibody (FIG. 8), 0.1-1×10⁶ cells were stained with 200 ng/100 μL of Ab on ice for 1 h. […] Finally, 4′,6-diamidino-2-phenylindole (DAPI) was added to a final concentration of 100 ng/mL to exclude dead cells from the analysis. Cells were analyzed using a FACSCalibur instrument (BD Biosciences) and FlowJo analytical software (Tree Star, Ashland, Oreg.).

[3] = biological target: T3, hFc-hROR1 (extracellular domain of human ROR1 fused to the Fc domain of human IgG1) (human, UniProt Q01973 30-406); assay: SPR (Biacore X100); hFc-hROR1 captured by anti-human Fcγ antibody on CM5; Fab as analyte; 1:1 Langmuir fit
T3 construct: extracellular domain; also called hFc-ROR1; not shown: Fc domain of human IgG1
T3 sequence (Q01973 30-406): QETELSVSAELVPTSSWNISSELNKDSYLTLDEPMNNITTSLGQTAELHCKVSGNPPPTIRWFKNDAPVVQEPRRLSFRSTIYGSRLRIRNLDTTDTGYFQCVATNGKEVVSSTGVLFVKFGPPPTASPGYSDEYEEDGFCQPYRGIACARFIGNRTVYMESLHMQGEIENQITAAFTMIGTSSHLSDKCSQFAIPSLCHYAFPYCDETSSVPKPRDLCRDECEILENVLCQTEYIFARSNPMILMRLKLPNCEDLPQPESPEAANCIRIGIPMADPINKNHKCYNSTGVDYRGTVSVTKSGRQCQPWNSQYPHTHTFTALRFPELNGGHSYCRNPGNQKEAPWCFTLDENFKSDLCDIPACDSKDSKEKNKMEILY
Experimental: (A) Shown are Biacore X100 sensorgrams obtained for the binding of each Fab to hFc-hROR1 captured by anti-human Fcγ antibody immobilized on CM5 chip after instantaneous background depletion. Fabs were injected at five different concentrations with the highest concentration indicated in table (B), one of the five concentrations was tested in duplicates. The equilibrium dissociation constant (Kd) was calculated from koff/kₒₙ (kₒₙ, association rate constant; koff, dissociation rate constant).
Surface plasmon resonance: Surface plasmon resonance for the measurement of the affinities of all Fabs to hFc-hROR1 and for epitope mapping studies were performed on a Biacore X100 instrument using Biacore reagents and software (GE Healthcare, Piscataway, N.J.). Anti-Human IgG (Fc) antibody was immobilized on a CM5 sensor chip following the instruction of Human Antibody Capture Kit (GE Healthcare, Piscataway, N.J.). The sensor chip included an empty flow cell for instantaneous background depletion. All binding assays used 1×HBS-EP+ running buffer (10 mM HEPES, 150 mM NaCl, 3 mM EDTA (pH 7.4), and 0.05% (v/v) Surfactant P20) and a flow rate of […]. […] The sensor chip was regenerated with […] from the Human Antibody Capture Kit without any loss of binding capacity. Calculation of association (kₒₙ) and dissociation (koff) rate constants was based on a 1:1 Langmuir binding model. The equilibrium dissociation constant (Kd) was calculated from koff/kₒₙ. For epitope mapping studies, each Fab was prepared at 500 nM alone in 1×HBS-EP+ running buffer and then injected in order as indicated in FIG. 5.

[4] = biological target: T4, hFc-mROR1 (extracellular domain of mouse ROR1 fused to the Fc domain of human IgG1) (human; mouse, UniProt Q9Z139 30-406); assay: ELISA; hFc fusion captured by coated anti-human IgG1 Fc; anti-His-HRP; A405
T4 construct: extracellular domain; not shown: Fc domain of human IgG1
T4 sequence (Q9Z139 30-406): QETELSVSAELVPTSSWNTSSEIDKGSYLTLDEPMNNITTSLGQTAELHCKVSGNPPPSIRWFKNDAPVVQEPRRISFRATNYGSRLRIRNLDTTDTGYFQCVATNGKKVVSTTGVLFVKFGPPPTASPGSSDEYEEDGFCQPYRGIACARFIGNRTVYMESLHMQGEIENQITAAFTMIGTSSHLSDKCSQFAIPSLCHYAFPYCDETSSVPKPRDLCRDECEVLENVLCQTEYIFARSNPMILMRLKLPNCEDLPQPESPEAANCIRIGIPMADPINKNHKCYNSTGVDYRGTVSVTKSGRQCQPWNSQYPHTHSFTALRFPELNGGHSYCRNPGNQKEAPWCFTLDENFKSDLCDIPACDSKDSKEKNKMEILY
Experimental: (§1) The binding of each chimeric rabbit/human Fab to hROR1 and mROR1 fused with human IgG1 Fc (hFc-hROR1 and hFc-mROR1) was analyzed by ELISA. hFc-ROR1 or hFc-mROR1 were captured by anti-human IgG1 Fc antibody immobilized on plate and then incubated with hROR1 specific Fabs comprising a His-tag via detection with mouse anti-His tag.
(§2) ELISA: For ELISA (FIG. 2), each well of a 96-well Costar 3690 plate (Corning, Corning, N.Y.) was coated with 100 ng anti-human IgG1 Fc in 25 μL coating buffer (0.1 M Na₂CO₃, 0.1 M NaHCO₃, pH 9.6) for 1 h at 37° C. After blocking with 150 μL 3% (w/v) BSA/TBS for 1 h at 37° C., hFc-hROR1 or hFc-mROR1 was captured following incubation at 100 ng/50 μL for 1 h at 37° C. Then 100 ng/50 μL of Fab was applied in each well at 37° C. 2 h later, 50 μL of a 1:1000 dilution of a mouse anti-His tag mAb conjugated to horse radish peroxidase (HRP) (R&D Systems, Minneapolis, Minn.) in 1% (w/v) BSA/TBS was used to detect the Fab. To determine the epitopes (FIG. 4), hFc fusion proteins containing different domains of hROR1 were coated directly, followed by incubation with Fab before detection by mouse anti-His tag mAb conjugated to HRP. Washing with PBS was repeated and colorimetric detection was performed using 2,2′-azino-bis(3-ethylbenzthiazoline)-6-sulfonic acid (Roche) as substrate according to the manufacturer's directions. The absorbance was measured at 405 nm using a SpectraMax M5 microplate reader (Molecular Devices; Sunnyvale, Calif.) and SoftMax Pro software (Molecular Devices).

[5] = biological target: T5, hFc-hROR2 (extracellular domain of human ROR2 fused to the Fc domain of human IgG1) (human, UniProt Q01974 34-403); assay: ELISA as for hFc-hROR1; third bar series, keyed 'hFc-hROR1' a second time on the sheet, taken as hFc-hROR2 by legend paragraph 27
T5 construct: extracellular domain; not shown: Fc domain of human IgG1
T5 sequence (Q01974 34-403): as the sequence (Q01974 34-403) above
Experimental: as §1, §2

Fr = biological target: T6, Fr; assay: ELISA on directly coated hFc fusion proteins of hROR1 domains; anti-His-HRP; A405
T6 construct: also called hFc-hROR1-Fr
T6 sequence (chain, as listed by the source limits assumed): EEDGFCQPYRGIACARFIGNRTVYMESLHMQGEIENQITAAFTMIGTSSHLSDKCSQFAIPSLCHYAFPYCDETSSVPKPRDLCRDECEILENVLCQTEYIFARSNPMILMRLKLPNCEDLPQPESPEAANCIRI
Experimental: as §2

Ig = biological target: T7, Ig (human, UniProt Q01973); assay: as above
T7 construct: Ig domain of the extracellular domain; also called hFc-hROR1-Ig
T7 sequence (Q01973 42-147 limits assumed): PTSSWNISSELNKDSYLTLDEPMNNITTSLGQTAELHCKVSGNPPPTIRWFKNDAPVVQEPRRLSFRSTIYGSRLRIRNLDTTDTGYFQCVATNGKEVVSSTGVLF
Experimental: as §2

Kr = biological target: T8, Kr (human, UniProt Q01973); assay: as above
T8 construct: Kringle domain of the extracellular domain; also called hFc-hROR1-Kr
T8 sequence (Q01973 312-391 limits assumed): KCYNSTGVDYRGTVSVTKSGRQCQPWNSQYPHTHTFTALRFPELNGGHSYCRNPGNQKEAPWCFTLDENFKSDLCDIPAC
Experimental: as §2

Fr + Ki = biological target: T9, Fr + Ki (human, UniProt Q01973); assay: as above
T9 construct: Frizzled and Kringle domains of the extracellular domain; also called hFc-hROR1-Fr-Ki
T9 sequence (Q01973 165-391 limits assumed): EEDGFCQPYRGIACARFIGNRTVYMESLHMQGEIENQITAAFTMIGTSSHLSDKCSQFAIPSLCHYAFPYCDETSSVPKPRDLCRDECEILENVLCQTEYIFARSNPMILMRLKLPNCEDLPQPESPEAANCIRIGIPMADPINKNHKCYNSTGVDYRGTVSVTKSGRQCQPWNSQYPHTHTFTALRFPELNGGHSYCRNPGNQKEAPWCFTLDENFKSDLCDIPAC
Experimental: as §2

Sequence of human ROR1, full length, on cells (Q01973 30-937): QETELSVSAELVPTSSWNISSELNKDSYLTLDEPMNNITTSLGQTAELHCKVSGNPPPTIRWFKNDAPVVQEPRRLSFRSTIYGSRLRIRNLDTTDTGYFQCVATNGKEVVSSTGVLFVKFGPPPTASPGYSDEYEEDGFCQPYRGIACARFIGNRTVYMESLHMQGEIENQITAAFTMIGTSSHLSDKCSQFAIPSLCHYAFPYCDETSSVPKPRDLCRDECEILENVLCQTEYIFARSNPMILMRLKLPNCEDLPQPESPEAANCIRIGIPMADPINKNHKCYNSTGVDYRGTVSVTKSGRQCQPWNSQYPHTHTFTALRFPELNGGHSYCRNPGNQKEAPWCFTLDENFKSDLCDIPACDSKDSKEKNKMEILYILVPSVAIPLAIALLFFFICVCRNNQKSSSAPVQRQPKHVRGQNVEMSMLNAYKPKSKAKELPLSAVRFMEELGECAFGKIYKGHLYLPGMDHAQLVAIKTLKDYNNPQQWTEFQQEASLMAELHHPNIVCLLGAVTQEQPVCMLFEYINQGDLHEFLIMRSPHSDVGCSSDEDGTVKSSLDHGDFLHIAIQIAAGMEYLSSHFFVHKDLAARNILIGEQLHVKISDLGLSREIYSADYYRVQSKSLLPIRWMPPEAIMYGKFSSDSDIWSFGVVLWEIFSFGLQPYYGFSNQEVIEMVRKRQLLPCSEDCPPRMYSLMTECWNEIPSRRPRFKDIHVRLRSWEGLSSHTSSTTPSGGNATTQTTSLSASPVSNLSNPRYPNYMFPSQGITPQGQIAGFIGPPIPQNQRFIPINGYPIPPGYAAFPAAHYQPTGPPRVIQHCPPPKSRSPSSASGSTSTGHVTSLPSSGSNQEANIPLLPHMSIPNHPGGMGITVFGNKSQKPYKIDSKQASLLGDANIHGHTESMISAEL

B1: HuXBR1-402(3)-G5-PNU (Adc456) (other)
VH: QVQLRESGPGLVKPSETLSLTCTVSGFDISSYYMSWVRQPPGKGLEWIGAIGISGNAYYASWAKSRVTISRDTSKNQFSLKLSSVTAADTAVYYCARDHPTYGMDLWGPGTLVTVSS
VL: SYELTQPLSVSVALGQTARITCEGNNIGSKAVHWYQQKPGQAPVLVIYDDDERPSGIPERFSGSNSGNTATLTISRAQAGDEADYYCQVWDSSAYVFGGGTKLTVLG
modifications: Gly5-EDA-PNU joined by sortase to the C-terminal G5SLPETG tag of the full light chain; Gly5-EDA-PNU joined by sortase to the C-terminal LPETG tag of the full heavy chain
IC50 values on 697 cells (in vitro cell killing) [1]: 0.0981 µg/mL

B2: HuXBR1-402(17)-G5-PNU (Adc459) (other)
VH: QVQLRESGPGLVKPSETLSLTCTVSGFDISSYYMSWVRQPPGKGLEWIGAIGISGNAYYASWAKSRVTISRDTSKNQFSLKLSSVTAADTAVYYCARDHPTYGMDLWGPGTLVTVSS
VL: SYELTQPPSVSVAPGKTARITCEGNNIGSKAVHWYQQKPGQAPVLVIYDDDERPSGIPERFSGSNSGNTATLTISRVEAGDEADYYCQVWDSSAYVFGGGTKLTVLG
modifications: Gly5-EDA-PNU joined by sortase to the C-terminal G5SLPETG tag of the full light chain; Gly5-EDA-PNU joined by sortase to the C-terminal LPETG tag of the full heavy chain
IC50 values on 697 cells (in vitro cell killing) [1]: 0.0706 µg/mL

B3: HuXBR1-402(26)-G5-PNU (Adc461) (other)
VH: QVQLQESGPGLVKPSETLSLTCTVSGFDISSYYMSWVRQPPGNGLEWIGAIGISGNAYYASWAKSRVTISRDTSKNQFSLKLSSVTAADTAVYYCARDHPTYGMDLWGPGTLVTVSS
VL: SYELTQPLSVSVALGQTARITCEGNNIGSKAVHWYQQKPGLAPVLVIYDDDERPSGIPERFSGSNSGNTATLTISRAQAGDEADYYCQVWDSSAYVFGGGTQLTVLG
modifications: Gly5-EDA-PNU joined by sortase to the C-terminal G5SLPETG tag of the full light chain; Gly5-EDA-PNU joined by sortase to the C-terminal LPETG tag of the full heavy chain
IC50 values on 697 cells (in vitro cell killing) [1]: 0.0939 µg/mL

B4: HuXBR1-402(8)-G5-PNU (Adc457) (other)
VH: QVQLQESGPGLVKPSETLSLTCTVSGFDISSYYMSWVRQPPGKGLEWIGAIGISGNAYYASWAKSRVTISRDTSKNQFSLKLSSVTAADTAVYYCARDHPTYGMDLWGPGTLVTVSS
VL: SYELTQPPSVSVSPGQTAIITCEGNNIGSKAVHWYQQKPGLSPVLVIYDDDERPSGIPERFSGSNSGNTATLTVSGTQDMDEADYYCQVWDSSAYVFGGGTKLTVLG
modifications: Gly5-EDA-PNU joined by sortase to the C-terminal G5SLPETG tag of the full light chain; Gly5-EDA-PNU joined by sortase to the C-terminal LPETG tag of the full heavy chain
IC50 values on 697 cells (in vitro cell killing) [1]: 0.164 µg/mL

B5: HuXBR1-402(19)-G5-PNU (Adc460) (other)
VH: QVQLQESGPGLVKPSETLSLTCTVSGFDISSYYMSWVRQPPGNGLEWIGAIGISGNAYYASWAKSRVTISRDTSKNQFSLKLSSVTAADTAVYYCARDHPTYGMDLWGPGTLVTVSS
VL: SYELTQPPSVSVAPGKTARITCEGNNIGSKAVHWYQQKPGQAPVLVIYDDDERPSGIPERFSGSNSGNTATLTISRVEAGDEADYYCQVWDSSAYVFGGGTKLTVLG
modifications: Gly5-EDA-PNU joined by sortase to the C-terminal G5SLPETG tag of the full light chain; Gly5-EDA-PNU joined by sortase to the C-terminal LPETG tag of the full heavy chain
IC50 values on 697 cells (in vitro cell killing) [1]: 0.0917 µg/mL

B6: HuXBR1-402(15)-G5-PNU (Adc458) (other)
VH: QVQLQESGPGLVKPSETLSLTCTVSGFDISSYYMSWVRQPPGKGLEWIGAIGISGNAYYASWAKSRVTISRDTSKNQFSLKLSSVTAADTAVYYCARDHPTYGMDLWGPGTLVTVSS
VL: SYELTQPPSVSVAPGKTARITCEGNNIGSKAVHWYQQKPGQAPVLVIYDDDERPSGIPERFSGSNSGNTATLTISRVEAGDEADYYCQVWDSSAYVFGGGTKLTVLG
modifications: Gly5-EDA-PNU joined by sortase to the C-terminal G5SLPETG tag of the full light chain; Gly5-EDA-PNU joined by sortase to the C-terminal LPETG tag of the full heavy chain
IC50 values on 697 cells (in vitro cell killing) [1]: 0.106 µg/mL

B7: ERR1-301 (mAb027) IgG with C-terminal sortase and Strep tags (antibody, V domains shown)
VH: QEQLEESGGGLVTPGGSLTLTCTASGFTISTYHMSWVRQAPGKGLEWIGSIYAGSGSTYYASWVNGRFTISSNTTQNTVSLQMNSLTVADTATYFCARDHPSYGMDLWGPGTLVTVSS
VL: SYELTQLPSVSVSLGQTARITCGGNSIGSKAVNWYQQKPGLAPGLLIYDDDERPSGVPDRFSASNSGDTATLTISGAQAEDEADYYCQLWDSSAVAYVFGGGTQLTVTG
notes: Human IgG1 constant regions
binding result [2]: no binding (tested: about 500 ng/ml)

B8: ERR1-TOP4 chimeric rabbit/human Fab (Fab, V domains shown)
VH: QSVEESGGRLVTPGTPLTLTCTASGIDLSRYAVNWVRQAPGKGLEWIGVISGSGTTYYASWAKGRFTISKTSTTVDLKITSPTTEDTATYFCARGWATDGIFDYDDTFNLWGPGTLVTVSS
VL: SYELTQLPSVSVSLGQTARITCGGDSIESKAVHWYQQKPGLAPGLLVYNDDERPSGVPDRFSGSNSGDTATLTISGAQAGDEADYYCQLWDGSAYVFGGGTQLTVTG
notes: Chimeric rabbit/human Fab with His tag, expressed in E. coli (pET11a); lambda light chain
binding result (hROR2): no binding (tested: 1000 ng/100 µL) | Kd [3]: 240 nM | koff [3]: 0.0592 s⁻¹ | kon [3]: 247000 M⁻¹ s⁻¹ | binding result [4]: no binding (tested: 100 ng/50 µL) | binding result [5]: no binding (tested: 100 ng/50 µL) | binding result (Fr): no binding | binding result (Ig): no binding | binding result (Kr): no binding | binding result (Fr + Ki): no binding
